Results on 1 protein are retold here after patent US20110229941.

This data set has as its target T1, crotonyl-S-SfaO (N-terminal 6x His-tagged free acyl carrier protein SfaO carrying a crotonyl thioester).
T1 chain: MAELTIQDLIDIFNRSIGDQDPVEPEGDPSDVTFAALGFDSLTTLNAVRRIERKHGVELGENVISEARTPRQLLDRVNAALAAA

B1: N-terminal 6x His-tagged SfaR (crotonyl-CoA reductase) (protein)
chain: VNEILSAVLSAEATAADFAALPLPESYRAITVHKDETEMFTGVGPADKDPRKSLHLDEVPVPELGPGEALVAVMASSVNYNSVWSSIFEPLPTFAFLERYGRRGELAKRHDLPYHVIGSDLAGVVLRTGPGVQAWKPGDEVVAHCLSVELESSDGHDDTMMDPEQRIWGFETNFGGLAELALVKSNQLMPKPRHLTWEEAAAPGLVNSTAYRQLVSRNGAQMKQGDNVLIWGASGGLGSYATQLALAGGANPVCVVSTPQKAAICRSMGAEAVIDRDAEDYRFWRDGNTQDPREWKRFGKRIRELTGGEDVDIVFEHPGRETFGASVFVARKGGTIVTCASTSGYEHQYDNRYLWMSLKRIIGSHFANYREAWEANRLVAKGRIHPTLSKVYPLEETGQAAFDVYGNVHHGKVGVLGLAPTEGLGVRDEEMRARHVGAINRFRPSAEPQTEPV
As for B1, the “activity of SfaR (reduction / reductive carboxylation) with crotonyl-S-SfaO as the substrate” value was “failed to detect any activity of SfaR”.
